Laboratory results: patent US10028997B2, “Systems and methods for attracting and trapping brain cancer cells” (GEISINGER HEALTH SYSTEM, priority 2014, dated 2018)

Tests used:
Format in all cases: cell-based
[1] = tested on: human glioblastoma stem cells (hGSCs); experiment: Boyden chamber migration, crystal violet staining and microscope cell count; settings: for hGSC migration (cells counted in bottom chamber): 10 μg/ml in bottom chamber, 16 hours, serum free medium, p<0.0001, FIGS. 3B and 3C
Experimental: Finally, human glioblastoma cell migration was also observed under the microscope. hGSCs were seeded in the upper Boyden chamber in serum free medium. Lcn2 was added to the bottom chamber at 10 μg/ml and cells were allowed to migrate for 16 hours. The bottom chamber was fixed and stained with crystal violet and cells were counted using a Zeiss Phase Contrast microscope at 10× magnification. […] To show the specificity of the Lcn2 chemotactic effect and to determine if the effect of Lcn2 on migration is […], Lcn2 was denatured by boiling in SDS buffer for 10 minutes and then added to the bottom Boyden chamber.

[2] = tested on: human glioblastoma stem cells (hGSCs); experiment: XCELLIGENCE RTCA CIM-16 (Boyden chamber) migration of hGSCs, Lcn2 in lower chamber
Experimental: Human glioblastoma stem cells (hGSCs) were seeded in an XCELLIGENCE RTCA CIM-16 plate, which functions as a Boyden chamber, in serum-free media. The XCELLIGENCE system (ACEA BIOSCIENCES, INC.) measures total surface area covered by cell membrane by detecting the electrical impedance, using microelectronic biosensor technology (Ness et al., NATURE COMMUNICATIONS 4:1912 (2013)). The lower chamber was supplemented with 10 μg/ml Lcn2 or 10% serum. Cell migration from the upper to the lower chamber was measured and plotted over time and the migration slope was calculated using RTCA DP software (ACEA BIOSCIENCES, INC.). The experiment was repeated four times and the results are presented as average+/−standard deviation.

[3] = tested on: human glioblastoma stem cells (hGSCs); experiment: Chemotaxis assay plate, linear Lcn2 gradient; settings: linear gradient of 10 μg/ml Lcn2 for 8 hours, FIGS. 4A-C
human glioblastoma cells = experiment: XCELLIGENCE migration after Lcn2 pre-treatment of glioblastoma cells; settings: pre-treated with 10 μg/ml Lcn2 for 24 hours; p<0.0001; FIGS. 2B and 2C
Experimental: To further determine the effect of Lcn2 on glioblastoma cell migration, glioblastoma cells were first pre-treated with 10 μg/ml Lcn2 for 24 hours. Migration was subsequently quantified using the XCELLIGENCE system in the presence or absence of Lcn2 as a chemo-attractant in the lower Boyden chamber.

| Molecule | hGSC migration (cells counted in bottom chamber) [1] | migration of hGSCs from upper to lower chamber ([2]; 10 μg/ml Lcn2 in lower chamber vs 10% serum, serum-free media, FIG. 2A) | attraction of hGSCs toward the bottom chamber containing the Lcn2 depot ([2]; 10 μg/ml Lcn2 in lower chamber, FIG. 3A) | rate of migration of hGSCs, lipocalin-2 in one chamber versus PBS in one chamber or lipocalin-2 in both chambers ([1]; FIGS. 3B, 3C) | migration towards the opposite direction (chemokinesis) [3] | migration toward the linear Lcn2 gradient (chemotaxis) ([3]; p<0.005) | migration after pre-treatment with Lcn2 (human glioblastoma cells) |
| --- | --- | --- | --- | --- | --- | --- | --- |
| denatured Lcn2: Lcn2 denatured by boiling in SDS buffer for 10 minutes (protein) QDSTSDLIPAPPLSKVPLQQNFQDNQFQGKWYVVGLAGNAILREDKDPQKMYATIYELKEDKSYNVTSVLFRKKKCDYWIRTFVPGCQPGEFTLGNIKSYPGLTSYLVRVVSTNYNQHAMVFFKKVSQNREYFKITLYGRTKELTSELKENFIRFSKSLGLPENHIVFPVPIDQCIDG | No effect on hGSC migration was observed |  |  |  |  |  |  |
| lipocalin-2 (protein, listed as Homo sapiens, member of the lipocalin family, a 23 kDa hydrophilic protein) MPLGLLWLGLALLGALHAQAQDSTSDLIPAPPLSKVPLQQNFQDNQFQGKWYVVGLAGNAILREDKDPQKMYATIYELKEDKSYNVTSVLFRKKKCDYWIRTFVPGCQPGEFTLGNIKSYPGLTSYLVRVVSTNYNQHAMVFFKKVSQNREYFKITLYGRTKELTSELKENFIRFSKSLGLPENHIVFPVPIDQCIDG | a significant increase in hGSC migration was observed | increases the migration of hGSCs as compared to serum alone | significantly attracts hGSCs toward the bottom chamber | increases the rate of migration of human glioblastoma stem cells (hGSCs) to the lipocalin-2-containing chamber | no difference in migration towards the opposite direction | increased migration toward the linear Lcn2 gradient | induced a significant increase in migration |
